Data from the nanobody polyreactivity screen of Harvey et al. (2022).

Test: yeast display, Sf9 membrane polyspecificity reagent, FACS + sequencing; frameworks hold sequencing errors
Summary of the method: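 Sorting gates, low and high (top ~1%), were placed on anti-HA fluorescence to track expression and on streptavidin fluorescence to track reagent binding. A clone's polyreactivity label is taken from the gate it came out of. The reagent was 10% biotinylated, detergent-solubilized Sf9 membrane, applied for 1 hour at 4 °C to galactose-induced yeast display cells.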

Row | Sequence | polyreactivity (PSR sort gate)
1 | QVQLVESGGGLVQAGGSLRLSCAASGRTFYVYTMGWYRQAPGKERELVAGISYSGGSTYYADSVKGRFTISRDNAKNTVYLQMNSLKPEDTAVYYCNRGLAARVGRGDYWGQGTQVTVSS | low polyreactivity
2 | QVQLVESGGGLVQAGGSLRLSCAASGRTFYWNAMGWYRQAPGKERELVAAITRNGGSTYYADSVKGRFTISRDNAKNTVYLQMNSLKPEDTAVYYCAARKRYGAGYDYWGQGTQVTVSS | high polyreactivity
3 | QVQLVESGGGLVQAGGSLRLSCAASGRTFYWYAMGWYRQAPGKERELVAAIRWSTGSTYYADSVKGRFTISRDNAKNTVYLQMNSLKPEDTAVYYCAATRPSWRYNYWGQGTQVTVSS | high polyreactivity
4 | QVQLVESGGGLVQAGGSLRLSCAASGRTFYWYTMGWYRQATGKERELVAAISIGGITSYADSVKGRFTISRDNAKNTVYLQMNSLKPEDTAVYYCAAPLSYKNVKYDYWGQGTQVTVSS | low polyreactivity
5 | QVQLVESGGGLVQAGGSLRLSCAASGRTFYYNAMGWYRQAPGKERELVAAISGRGGSTYYADSVKGRFTISRDNAKNTVYLQMNSLKPEDTAVYYCNAVRYKYTGRFGYWGQGTQVTVSS | high polyreactivity
6 | QVQLVESGGGLVQAGGSLRLSCAASGRTFYYNAMGWYRQAPGKERELVAAISSGDSTYYADSVKGRFTISRDNAKNTVYLQMNSLKPEDTAVYYCNKYVAYDYWGQGTQVTVSS | low polyreactivity
7 | QVQLVESGGGLVQAGGSLRLSCAASGRTFYYNAMGWYRQAPGKERELVAAISWSGGSTYYADSVKGRFTISRDNAKNTVYLQMNSLKPEDTAVYYCAAGAYSYRKYRSYDYWGQGTQVTVSS | high polyreactivity
8 | QVQLVESGGGLVQAGGSLRLSCAASGRTFYYNAMGWYRQAPGKERELVAVITRGSTYYADSVKGRFSISRDNAKNTVYLQMKSLKPEDTAVYYCCKYRHYHRGYDYWGQGTQVTVSS | high polyreactivity
9 | QVQLVESGGGLVQAGGSLRLSCAASGRTFYYNAMGWYRQAPGKEREMVADINWSGVRTYYADSVKGRFTISRDNAKNTVYLQMNSLKPEDTAAYYCAAERLLYKHYEEDYWGQGTQVTVSS | low polyreactivity
10 | QVQLVESGGGLVQAGGSLRLSCAASGRTFYYNAMGWYRQAPGKERQLVAAITSSGSTYYADSVKGRFTISRDNAKNTVYLQMNSLKPEDTAVYYCASVTSYSHYRLSGWYRFEYWGQGTQVTVSS | high polyreactivity
11 | QVQLVESGGGLVQAGGSLRLSCAASGRTFYYNTMGWYRQAPGKERELVAAITRGGSTYYADSVKGRFTISRVNAKNTVYLQMNSLKPEETAVYYCNAPRYLRRYVKDHDYWGEGTQVTVSS | high polyreactivity
12 | QVQLVESGGGLVQAGGSLRLSCAASGRTFYYYAMGWNRQAPGTERELVAAITTDGGNTYYADSVKGRFTISRDTAKNTVYLQMNSLKPEDTAVYYCATDGYEYTDYGSSGYDYWGQGTQVTVSS | low polyreactivity
13 | QVQLVESGGGLVQAGGSLRLSCAASGRTFYYYAMGWSRQAPGKERELVAAIRWRATSTFYADSVKGRFTISRDNAKNTVYLQMNSLKPEDSAVYYCATTGGYRLQAQKYYYWGQGTQVTLSS | high polyreactivity
14 | QVQLVESGGGLVQAGGSLRLSCAASGRTFYYYAMGWYIPAPGKERELVARISYSGSNTYYADSVKGRFTISRDTAKNTVYLQMNSLKREVTAGYYCAAGYLVWRDSATLDYWGQGTQVTVSS | high polyreactivity
15 | QVQLVESGGGLVQAGGSLRLSCAASGRTFYYYAMGWYRPAPGKERELVAAIRRSGSSTYYADSVKGRFTISRDNAKNTVYLQMNSLKPEDTAVYYCAAAVYQRARYYWGQGTQVTVSS | high polyreactivity
16 | QVQLVESGGGLVQAGGSLRLSCAASGRTFYYYAMGWYRQAPCKERELVSAITTDGGNTYYADSVKGRFTISRDNAKNTVYLQMNSLKPEDTAVYYCATDGYEYTDYGSSGYDYWGQGTQVTVSS | low polyreactivity
17 | QVQLVESGGGLVQAGGSLRLSCAASGRTFYYYAMGWYRQAPGKERELVAAISGSGGSTYYADSVKGRFTISRDIAKNTVYLQMNSLKPEDTAVYYCAASGPRRRYDYWGQGTQVTVSS | high polyreactivity
18 | QVQLVESGGGLVQAGGSLRLSCAASGRTFYYYAMGWYRQAPGKERELVAAISKSGGSTYYADSVKGRFTISRDNAKNTVYLQMNSLKPEDTAVYYCAALTTHAPHSYNYWGQGTQVTVSS | low polyreactivity
19 | QVQLVESGGGLVQAGGSLRLSCAASGRTFYYYAMGWYRQAPGKERELVAAISWSGGSTYYADSVKGRFTISRDNAKNTVYLQMNSLKPEDTAVYYCAARLPENSFGLYYYWGQGTQVTVSS | high polyreactivity
20 | QVQLVESGGGLVQAGGSLRLSCAASGRTFYYYAMGWYRQAPGKERELVARISRGGSTNYADSVKGRFTISRDNAKNTVYLQMNILKPEDTAVYYCAKTISYTGRFWGYDYWGQGTQVTVSS | high polyreactivity
21 | QVQLVESGGGLVQAGGSLRLSCAASGRTFYYYAMGWYRQAPGKERELVAVISWDDGSTYYADSVKGRFTISRDNAKNTVYLQMNSLKPEVTAVYYCAAYDYLDYADDYWGQGTQVTVSS | low polyreactivity
22 | QVQLVESGGGLVQAGGSLRLSCAASGRTFYYYGRVWYRQAPGKERDFVAAITRSGGRTYYADSVKGRFTISRDNAKNTVYLQMNSLKPEDTAVYYCATGGYYRYSGLSVYGYPYEYWGQGTQVTVSS | high polyreactivity

Row | Sequence | polyreactivity (PSR sort gate)
23 | QVQLVESGGGLVQAGGSLRLSCAASGRTFYYYTMGWYRQPPRKEREFVAAISWSGGSKYYADSVKGRFTISRDNAKNTVYLQMNSLIPEDTAVYYCNARSFATGSKVPARGYWVQGTQVTVSS | high polyreactivity
24 | QVQLVESGGGLVQAGGSLRLSCAASGRTFYYYYTMGWYRQPPGKETELVAAISRSGSTNYADSVKGRFTISRDNAKNTVYLQMNSLKPEDTAVYYCARSYRSDGSRFGYWGQGTQVTVSS | low polyreactivity
25 | QVQLVESGGGLVQAGGSLRLSCAASGRTIASYAMGWYRQAPGKERELVAAITSGGSTYYADSVKGRFTISRDNAKNTVYLQINSLKPEDTAVYYCARKHAIWRGYDYWGQGNQVTVSS | low polyreactivity
26 | QVQLVESGGGLVQAGGSLRLSCAASGRTIASYAMGWYRQAPGKERELVAAITSGGSTYYADSVKGRFTISRDNAKNTVYLQMNSLKPEDTAVYYCAAYVRPAYYAIHVDYWGQGTQVTVSS | low polyreactivity
27 | QVQLVESGGGLVQAGGSLRLSCAASGRTIGPYVMGWYRQAPGKERELVAAITYIGDRTYYADSVKGRFTISRDNAKNTVYLQMNSLKPEDTAVYYCNADFFSRWGYRYMDYWGQGTQVTVSS | low polyreactivity
28 | QVQLVESGGGLVQAGGSLRLSCAASGRTIGTYAMGWYRQAPGTERELVAAIRSNAGSTYYADSVKGRFTISRDNGKNTVYLQMNSLKPEDTAVYYCAKSYRSSRRYNYWGQGTQVTVSS | high polyreactivity
29 | QVQLVESGGGLVQAGGSLRLSCAASGRTIGYYAMGWYRQAPGKERELDAAITRSGGSTYYADSVKGRFTISRDNAKNTVYLQMKSLKPEDTAVYYCATYSVSGKPLGYWGHGTQVTVSS | low polyreactivity
30 | QVQLVESGGGLVQAGGSLRLSCAASGRTIKVYAMGWYRQAPGKERELVAAISYSGAGTRYADSVKGRFTISRDNAKNTVYLQMNSLKPEDTAVYYCNTDAWARVKRYEYWGQGTQVTVSS | low polyreactivity
31 | QVQLVESGGGLVQAGGSLRLSCAASGRTILLNDMGWYRQAPGKERELVAGITRSGGSTYYADSVKGRFTISRDNAKNTVYLQMNSLKPEDNAVYYCAADFKPLYYDEYDYWGQGTQVTVSS | low polyreactivity
32 | QVQLVESGGGLVQAGGSLRLSCAASGRTINRYAMGWYRQAPGKERELVAVITSDGRTNYADSVKGRFTISRDNAKNTVYLQMNSLKPEDTAVYYCNKRSALSFVYDFDYWGQGTQVTVSS | low polyreactivity
33 | QVQLVESGGGLVQAGGSLRLSCAASGRTIPAYTMGWYRQAPGKERELVAAINWSGGSTYYADSVKARFTISRDNAKNCVYLQMISLNPEDTAVYYCARTSRYYGFRSYGTLDYWGQGTQVTVSS | high polyreactivity
34 | QVQLVESGGGLVQAGGSLRLSCAASGRTIPWNVMGWYRQAPGKERELVATITSRRTSTNYADSVKARFTISRDNAKNTVYLPMNSLKPEDTAVYYCARRTVWGAGHYYYWGQGTQVTVSS | high polyreactivity
35 | QVQLVESGGGLVQAGGSLRLSCAASGRTIRENVMGWYRQAPGKERELVAAITGNDGTTYYADSVKGRFTISRDNAKNTVYLQMNSLKPEDTAVYYCAARPYLGYIGYDYWGQGTQVTVSS | low polyreactivity
36 | QVQLVESGGGLVQAGGSLRLSCAASGRTIRHNAMGWYRQARGKERELVGAISRSGGATYYADSVKGRFTISRDNAKNTVYLQMNSLKPEDTAVYYCAAGYHIIYTPEYYYWGQGTQVTVSS | high polyreactivity
37 | QVQLVESGGGLVQAGGSLRLSCAASGRTIRYYTMGWYRQAPGKEREFVAAISSTGGTYYADSVKGRFTISRDNAKNTVYLQMNSLKPEDTAVYYCAATFIQVVVNVQLYDYDYWGQGTQVTVSS | low polyreactivity
38 | QVQLVESGGGLVQAGGSLRLSCAASGRTISHNAMGWYRQPPGKESELVAAISSGGGSTYYGDSVKGRFTISRDNAKNTVYVQMNSLKPEDTAVYYCAAPSYGRSRGFGLGINKYDYWGQGTQVTVSS | high polyreactivity
39 | QVQLVESGGGLVQAGGSLRLSCAASGRTITRNAMGWYRQAPGKERELVASINRGGITYYADSVKGRFTISRDNAKNTVYLQMNSLKPEDTAVYYCATRPWRSPWGYYDYWGQGTQVTVSS | high polyreactivity
40 | QVQLVESGGGLVQAGGSLRLSCAASGRTITWNAMGWYRQAPGKERELVADITNNGGSTYYADSVKGRFTISRDNAKNTVYLQMNSLKPEDTAVYYCAKRRNYWFSFDYWGQGTQVTVSS | low polyreactivity
41 | QVQLVESGGGLVQAGGSLRLSCAASGRTIWTYVMGWYRQAPGKERELVAAISRSGSSTYYADSVKGRFTISRDNAKNTVYLQMNSLKPEDTAVYYCAASSPWEQSHDQFYYWGQGTQVTVTS | low polyreactivity
42 | QVQLVESGGGLVQAGGSLRLSCAASGRTIWVYTMGWYRQAPGKERELVATINYRGGSTYYADSVKGRFTISRDNAKNTVYLQMNSLKPEDTAVYYCAADYSPPYPRYPYDYWGQGTQVTVSS | high polyreactivity
43 | QVQLVESGGGLVQAGGSLRLSCAASGRTIWYYAMGWYRQAPGKERELVASITRSGGSTYADSVKGRFTISRDNAKNTVDLQMNSLKPEDTAVYYCAATRPRIPVYQNNYGYWGQGSQVTVSS | high polyreactivity
